In publication PMC13218723, “A novel RAB5 binding site in human VPS34-CII that is likely the primordial site in eukaryotic evolution” (eLife, 2026):
Where “and” joins values, the source holds several entries; their conditions need not be identical. Equal values may be shown once. Each block holds one binder with its values, some of them ahead of it.

What was measured:
[1] = molecular target: T1, mCherry-tagged human VPS34-CII with VPS34 199-REIE-202>199-AAAA-202 (human, UniProt Q8NEB9 1-887; Q99570 1-1358; Q14457 1-450; Q9P2Y5 1-699, 199-REIE-202>199-AAAA-202); experiment: confocal microscopy bead-based binding assay; RFP-trap agarose beads coated with 2 µM mCherry-tagged VPS34 complex (or mCherry alone); AF488-labelled RAB protein added at varying concentrations; 20 mM HEPES pH 8.0, 100 mM NaCl, 0.5 mM TCEP; 30 min on ice; AF488 normalised by mCherry intensity; fit 'One site - specific binding'; settings: both partners purified
T1 construct: human VPS34, full length, untagged, REIE to AAAA in C2 HH helix 2; human VPS15, full length, with C-terminal 3xTEV-ZZ removed by TEV; human BECLIN1, full length; human UVRAG, full length, untagged; also called VPS34-CII REIE >AAAA; source: Expi293 cells, transfected; purified (IgG beads, TEV cleavage, S200 gel filtration); not shown: ZZ (protein A), C-terminal, cleaved; mCherry, N-terminal, kept; …

[2] = molecular target: T2, mCherry-tagged human VPS34-CII with VPS34 199-REIE-202>199-ERIR-202 (human, UniProt Q8NEB9 1-887; Q99570 1-1358; Q14457 1-450; Q9P2Y5 1-699, R199E | E200R | E202R); experiment: as above; settings: both partners purified
T2 construct: human VPS34, full length, untagged, R199E E200R E202R; human VPS15, full length, with C-terminal 3xTEV-ZZ removed by TEV; human BECLIN1, full length; human UVRAG, full length, untagged; also called VPS34-CII REIE >ERIR; reverse charge mutant; source: Expi293 cells, transfected; purified (IgG beads, TEV cleavage, S200 gel filtration); not shown: ZZ (protein A), C-terminal, cleaved; mCherry, …

[3] = molecular target: T3, mCherry-tagged human VPS34 complex II (VPS34-CII), wild type (human, UniProt Q8NEB9 1-887; Q99570 1-1358; Q14457 1-450; Q9P2Y5 1-699); experiment: as above; settings: both partners purified
T3 construct: human VPS34 (class III PI3K), full length, untagged; human VPS15, full length, with C-terminal 3xTEV-ZZ removed by TEV; human BECLIN1, full length; human UVRAG, full length, untagged; Held on RFP-trap beads by the mCherry on BECLIN1; also called mCherry-VPS34-CII; WT VPS34-CII; source: Expi293 cells, transfected; purified (IgG beads, TEV cleavage, S200 gel filtration); not shown: ZZ (protein A), …

[4] = molecular target: T4, mCherry-tagged human VPS34-CII with VPS15 579-SHMIT-583>579-DDMIE-583 (human, UniProt Q8NEB9 1-887; Q99570 1-1358; Q14457 1-450; Q9P2Y5 1-699, S579D | H580D | T583E); experiment: as above; settings: both partners purified
T4 construct: human VPS34, wild type; human VPS15, full length, S579D H580D T583E, with C-terminal 3xTEV-ZZ removed by TEV; human BECLIN1, full length; human UVRAG, full length, untagged; also called VPS34-CII VPS15 mutant; VPS15 mut; source: Expi293 cells, transfected; purified (IgG beads, TEV cleavage, S200 gel filtration); not shown: ZZ (protein A), C-terminal, cleaved; mCherry, N-terminal, kept; copies: + …

[5] = molecular target: mCherry-tagged human VPS34-CII with VPS34 199-REIE-202>199-AAAA-202 (human, UniProt Q8NEB9 1-887; Q99570 1-1358; Q14457 1-450; Q9P2Y5 1-699, 199-REIE-202>199-AAAA-202)
[6] = molecular target: T5, mCherry-tagged human VPS34 complex II with VPS15 579-SHMIT-583>DDMIE (human, UniProt Q8NEB9 1-887; Q99570 1-1358; Q14457 1-450; Q9P2Y5 1-699, S579D | H580D | T583E); experiment: confocal microscopy bead-based binding assay; mCherry-tagged VPS34 complex (2 µM) held on RFP-trap agarose beads, AF488-labelled RAB5A added at varying concentrations; 20 mM HEPES pH 8.0, 100 mM NaCl, 0.5 mM TCEP; 30 min on ice; AF488 intensity normalised by mCherry intensity; GraphPad Prism fit 'One site - specific binding'; fit of the representative experiment; settings: both partners purified
T5 construct: VPS34 (PIK3C3), human, wild type; BECLIN1, human, full length; UVRAG, human, full length, untagged; also called VPS34-CII VPS15 mutant; CII-DDMIE; source: Expi293 cells, transfected, purified (IgG beads, TEV cleavage, gel filtration); not shown: ZZ, C-terminal, cleaved; mCherry, N-terminal, kept; copies: + + +

[7] = molecular target: T6, mCherry-tagged human VPS34 complex II, wild type (VPS34, VPS15, mCherry-BECLIN1, UVRAG) (human, UniProt Q8NEB9 1-887; Q99570 1-1358; Q14457 1-450; Q9P2Y5 1-699); experiment: as above; settings: both partners purified
T6 construct: VPS34 (PIK3C3), human, full length, untagged; VPS15, human, full length; BECLIN1, human, full length; UVRAG, human, full length, untagged; Held on RFP-trap beads by the mCherry on BECLIN1; also called VPS34-CII; WT VPS34-CII; source: Expi293 cells, transfected, purified (IgG beads, TEV cleavage, gel filtration); not shown: ZZ, C-terminal, cleaved; mCherry, N-terminal, kept; copies: + + +

[8] = molecular target: T7, mCherry-tagged human VPS34 complex II with VPS34 199-REIE-202>AAAA (human, UniProt Q8NEB9 1-887; Q99570 1-1358; Q14457 1-450; Q9P2Y5 1-699, 199-REIE-202>199-AAAA-202); experiment: as above; settings: both partners purified
T7 construct: VPS34 (PIK3C3), human, full length, untagged, 199-REIE-202 changed to AAAA; VPS15, human, full length; BECLIN1, human, full length; UVRAG, human, full length, untagged; also called VPS34-CII REIE >AAAA; CII-AAAA; source: Expi293 cells, transfected, purified (IgG beads, TEV cleavage, gel filtration); not shown: ZZ, C-terminal, cleaved; mCherry, N-terminal, kept; copies: + + +

[9] = molecular target: T8, mCherry-tagged human VPS34 complex II with VPS34 199-REIE-202>ERIR (human, UniProt Q8NEB9 1-887; Q99570 1-1358; Q14457 1-450; Q9P2Y5 1-699, R199E | E200R | E202R); experiment: as above; settings: both partners purified
T8 construct: VPS34 (PIK3C3), human, full length, untagged, R199E E200R E202R (199-REIE-202 to ERIR); VPS15, human, full length; BECLIN1, human, full length; UVRAG, human, full length, untagged; also called VPS34-CII REIE >ERIR; CII-ERIR; source: Expi293 cells, transfected, purified (IgG beads, TEV cleavage, gel filtration); not shown: ZZ, C-terminal, cleaved; mCherry, N-terminal, kept; copies: + + +

[10] = molecular target: human VPS34-CII with VPS34 199-REIE-202>199-ERIR-202, untagged (human, UniProt Q8NEB9 1-887; Q99570 1-1358; Q14457 1-450; Q9P2Y5 1-699, R199E | E200R | E202R); experiment: cell-based or functional assay
[11] = molecular target: T4, mCherry-tagged human VPS34-CII with …; experiment: cell-based or functional assay
[12] = molecular target: mCherry-tagged yeast VPS34-CII (ScVPS34-CII), wild type (S. cerevisiae, UniProt P22543 1-875; P22219 1-1454; Q02948 1-557; Q05919 1-439)
[13] = molecular target: T9, mCherry-tagged yeast VPS34-CII (ScVPS34-CII), wild type (S. cerevisiae, UniProt P22543 1-875; P22219 1-1454; Q02948 1-557; Q05919 1-439); experiment: confocal microscopy bead-based binding assay; RFP-trap beads coated with mCherry-tagged yeast VPS34-CII; Vps21 Q66L-EGFP added at increasing concentrations; settings: both partners purified
T9 construct: S. cerevisiae Vps34; S. cerevisiae Vps15; S. cerevisiae Vps30, named as a common subunit of the yeast complexes; S. cerevisiae Vps38, named as the unique subunit of yeast complex II; also called WT ScVPS34-CII; yeast complex II; source: S. cerevisiae YOY193, galactose-induced; purified (IgG beads, TEV cleavage, Superdex 200); copies: + + +

T4 sequence (Q8NEB9 whole entry, chain 1 of 4): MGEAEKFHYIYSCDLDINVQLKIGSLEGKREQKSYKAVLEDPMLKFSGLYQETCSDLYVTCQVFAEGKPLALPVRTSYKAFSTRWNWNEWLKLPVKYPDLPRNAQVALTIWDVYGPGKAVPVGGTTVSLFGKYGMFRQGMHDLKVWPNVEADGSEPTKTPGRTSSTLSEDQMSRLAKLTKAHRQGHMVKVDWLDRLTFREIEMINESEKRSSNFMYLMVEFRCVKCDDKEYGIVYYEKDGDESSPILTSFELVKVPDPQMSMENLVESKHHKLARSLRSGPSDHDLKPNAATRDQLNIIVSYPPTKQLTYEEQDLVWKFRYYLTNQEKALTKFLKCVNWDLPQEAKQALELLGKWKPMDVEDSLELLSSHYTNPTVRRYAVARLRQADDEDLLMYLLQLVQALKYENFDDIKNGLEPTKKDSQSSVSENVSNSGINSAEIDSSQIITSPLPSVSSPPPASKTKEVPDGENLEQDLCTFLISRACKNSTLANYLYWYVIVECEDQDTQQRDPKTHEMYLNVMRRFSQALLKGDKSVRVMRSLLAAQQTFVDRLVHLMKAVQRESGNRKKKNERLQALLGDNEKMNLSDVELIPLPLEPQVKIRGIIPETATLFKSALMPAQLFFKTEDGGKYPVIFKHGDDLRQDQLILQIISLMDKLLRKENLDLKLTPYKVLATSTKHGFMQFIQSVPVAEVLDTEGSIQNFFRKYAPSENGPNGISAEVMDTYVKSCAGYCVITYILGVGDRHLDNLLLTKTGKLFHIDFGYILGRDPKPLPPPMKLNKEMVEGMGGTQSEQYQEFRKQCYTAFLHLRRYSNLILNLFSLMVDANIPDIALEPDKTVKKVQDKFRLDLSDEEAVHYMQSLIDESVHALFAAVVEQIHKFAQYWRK
T4 sequence (Q99570 whole entry S579D/H580D/T583E, chain 2 of 4): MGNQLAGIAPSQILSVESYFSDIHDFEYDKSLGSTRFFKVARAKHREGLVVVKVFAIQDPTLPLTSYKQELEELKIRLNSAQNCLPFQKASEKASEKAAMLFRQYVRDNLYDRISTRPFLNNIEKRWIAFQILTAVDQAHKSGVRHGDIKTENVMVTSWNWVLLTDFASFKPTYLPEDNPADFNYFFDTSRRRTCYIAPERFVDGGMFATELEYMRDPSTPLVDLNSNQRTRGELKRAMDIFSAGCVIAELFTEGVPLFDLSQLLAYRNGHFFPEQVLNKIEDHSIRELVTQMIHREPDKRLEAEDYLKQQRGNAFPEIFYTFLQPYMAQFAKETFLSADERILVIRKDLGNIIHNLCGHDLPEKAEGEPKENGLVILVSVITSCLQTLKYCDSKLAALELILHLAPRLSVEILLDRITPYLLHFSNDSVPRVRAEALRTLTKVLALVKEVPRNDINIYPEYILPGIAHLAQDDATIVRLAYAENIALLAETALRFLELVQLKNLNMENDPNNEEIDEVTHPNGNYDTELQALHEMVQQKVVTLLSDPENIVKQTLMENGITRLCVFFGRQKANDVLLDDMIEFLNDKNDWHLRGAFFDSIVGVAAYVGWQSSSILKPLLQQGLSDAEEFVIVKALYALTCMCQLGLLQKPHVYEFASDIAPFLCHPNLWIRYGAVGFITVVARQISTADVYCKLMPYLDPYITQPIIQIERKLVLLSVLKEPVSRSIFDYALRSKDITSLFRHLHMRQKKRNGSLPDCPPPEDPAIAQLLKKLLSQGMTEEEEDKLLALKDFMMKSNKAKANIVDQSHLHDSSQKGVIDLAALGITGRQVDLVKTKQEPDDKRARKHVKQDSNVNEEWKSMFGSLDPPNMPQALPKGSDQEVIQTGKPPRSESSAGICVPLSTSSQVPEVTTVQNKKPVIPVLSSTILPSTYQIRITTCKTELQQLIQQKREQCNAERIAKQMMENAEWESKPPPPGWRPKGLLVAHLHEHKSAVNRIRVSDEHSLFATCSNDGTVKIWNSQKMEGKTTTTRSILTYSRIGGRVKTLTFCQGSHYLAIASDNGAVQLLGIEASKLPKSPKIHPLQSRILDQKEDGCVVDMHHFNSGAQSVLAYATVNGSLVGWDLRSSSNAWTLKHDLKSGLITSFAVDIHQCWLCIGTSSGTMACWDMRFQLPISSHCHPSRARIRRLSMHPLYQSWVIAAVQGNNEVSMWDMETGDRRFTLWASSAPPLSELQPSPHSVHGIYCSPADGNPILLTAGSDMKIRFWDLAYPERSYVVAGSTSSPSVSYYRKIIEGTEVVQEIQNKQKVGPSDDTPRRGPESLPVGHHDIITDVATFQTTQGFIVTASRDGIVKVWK
T4 sequence (Q14457 whole entry, chain 3 of 4): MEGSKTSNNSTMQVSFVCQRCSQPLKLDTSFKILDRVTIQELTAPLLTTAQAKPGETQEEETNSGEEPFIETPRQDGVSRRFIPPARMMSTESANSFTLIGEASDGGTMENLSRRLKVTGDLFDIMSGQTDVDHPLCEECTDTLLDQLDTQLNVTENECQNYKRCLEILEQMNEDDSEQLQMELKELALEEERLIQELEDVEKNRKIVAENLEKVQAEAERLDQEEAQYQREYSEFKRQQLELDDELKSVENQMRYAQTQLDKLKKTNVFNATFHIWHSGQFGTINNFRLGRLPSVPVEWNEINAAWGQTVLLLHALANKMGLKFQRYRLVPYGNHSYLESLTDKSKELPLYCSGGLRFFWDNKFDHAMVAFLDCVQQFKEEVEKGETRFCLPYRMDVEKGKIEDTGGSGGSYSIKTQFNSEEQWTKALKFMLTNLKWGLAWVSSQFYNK
T4 sequence (Q9P2Y5 whole entry, stated change not applied, chain 4 of 4): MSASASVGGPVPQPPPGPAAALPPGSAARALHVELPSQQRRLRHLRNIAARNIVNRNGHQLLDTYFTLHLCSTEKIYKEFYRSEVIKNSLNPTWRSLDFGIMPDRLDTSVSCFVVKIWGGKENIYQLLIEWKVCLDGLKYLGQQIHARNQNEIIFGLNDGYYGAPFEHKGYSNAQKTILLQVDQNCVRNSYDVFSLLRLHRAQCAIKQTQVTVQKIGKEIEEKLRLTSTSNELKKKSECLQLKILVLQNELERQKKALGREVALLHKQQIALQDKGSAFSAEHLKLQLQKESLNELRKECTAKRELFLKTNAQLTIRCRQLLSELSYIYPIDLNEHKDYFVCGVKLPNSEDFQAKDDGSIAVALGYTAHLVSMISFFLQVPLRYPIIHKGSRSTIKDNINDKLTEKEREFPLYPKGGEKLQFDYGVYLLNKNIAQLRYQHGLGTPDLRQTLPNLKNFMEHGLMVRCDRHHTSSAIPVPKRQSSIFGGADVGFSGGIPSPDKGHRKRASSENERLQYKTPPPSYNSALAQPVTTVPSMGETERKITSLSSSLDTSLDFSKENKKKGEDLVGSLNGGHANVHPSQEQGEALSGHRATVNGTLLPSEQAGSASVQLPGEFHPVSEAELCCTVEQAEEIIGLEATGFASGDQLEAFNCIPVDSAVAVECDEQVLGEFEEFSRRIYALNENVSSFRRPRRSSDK

B1: AF488-labelled human RAB5A Q79L C19S C63S, 1-212 (natural protein, UniProt P20339 1-212, looked up)
chain: MASRGATRPNGPNTGNKISQFKLVLLGESAVGKSSLVLRFVKGQFHEFQESTIGAAFLTQTVSLDDTTVKFEIWDTAGLERYHSLAPMYYRGAQAAIVVYDITNEESFARAKNWVKELQRQASPNIVIALSGNKADLANKRAVDFQEAQSYADDNSLLFMETSAKTSMNVNEIFMAIAKKLPKNEPQNPGANSARGRGVDLTEPTQPTRNQC
modifications: AlexaFluor 488 C5 maleimide label (43% labelling efficiency)
notes: human RAB5A residues 1-212, Q79L C19S C63S; The methods say that RAB5A was loaded with GTP or GDP; also called RAB5A-AF488; RAB5-AF488
fold tighter binding than the WT complex [1]: ~3 fold | Kd [2]: 27 µM | Kd [3]: 7.4 µM | Kd [4]: 6 µM | Kd [5]: 2.6 µM

B2: HsRAB5A Q79L C19S,C63S, 1-212, AF488-labelled (natural protein, human, UniProt P20339 1-212, looked up)
chain: MASRGATRPNGPNTGNKISQFKLVLLGESAVGKSSLVLRFVKGQFHEFQESTIGAAFLTQTVSLDDTTVKFEIWDTAGLERYHSLAPMYYRGAQAAIVVYDITNEESFARAKNWVKELQRQASPNIVIALSGNKADLANKRAVDFQEAQSYADDNSLLFMETSAKTSMNVNEIFMAIAKKLPKNEPQNPGANSARGRGVDLTEPTQPTRNQC
modifications: AlexaFluor 488 C5 maleimide label (43% labelling efficiency)
notes: RAB5A, human, residues 1-212, with Q79L, C19S and C63S; Loaded with GTP or GDP before gel filtration; also called RAB5A-AF488; AF488-RAB5A; source: E. coli OverExpress C41(DE3), purified (HisTrap, ULP1 cleavage, gel filtration)
Kd [6]: 6.04 µM | Kd [7]: 6.27 µM | Kd [8]: 3.21 µM and 4.24 µM | Kd [9]: 22.1 µM

The next lines start with the values.

GUV-based kinase assay: activation of VPS34-CII by membrane-tethered RAB5A (initial rates, AF647-PX signal) [10]: 2 fold | GUV-based kinase assay: activation of VPS34-CII by membrane-tethered RAB5A (initial rates, AF647-PX signal) [11]: ~2 fold
B3: human RAB5A-GTP 1-212 (C19S, C63S, Q79L), unlabelled (natural protein, UniProt P20339 1-212, looked up)
chain: MASRGATRPNGPNTGNKISQFKLVLLGESAVGKSSLVLRFVKGQFHEFQESTIGAAFLTQTVSLDDTTVKFEIWDTAGLERYHSLAPMYYRGAQAAIVVYDITNEESFARAKNWVKELQRQASPNIVIALSGNKADLANKRAVDFQEAQSYADDNSLLFMETSAKTSMNVNEIFMAIAKKLPKNEPQNPGANSARGRGVDLTEPTQPTRNQC

Kd [12]: 6 µM | binding result [13]: binds
B4: S. cerevisiae Vps21 Q66L, 1-207, EGFP fusion (natural protein, UniProt P36017 1-207, looked up)
chain: MNTSVTSIKLVLLGEAAVGKSSIVLRFVSNDFAENKEPTIGAAFLTQRVTINEHTVKFEIWDTAGLERFASLAPMYYRNAQAALVVYDVTKPQSFIKARHWVKELHEQASKDIIIALVGNKIDMLQEGGERKVAREEGEKLAEEKGLLFFETSAKTGENVNDVFLGIGEKIPLKTAEEQNSASNERESNNQRVDLNAANDGTSANSA
notes: S. cerevisiae Vps21 residues 1-207, Q66L (GTP-locked); Backbone pOPTH; also called Vps21 Q66L-EGFP; yeast RAB5 orthologue; source: E. coli OverExpress C41(DE3), purified (Ni-NTA, Q column, S75 gel filtration), GTP-loaded; not shown: EGFP, C-terminal, kept
